Tests used:
86G2 = assay: ELISA, coated CR6261, P. pastoris medium; settings: remark: other sources report otherwise
78F11 = assay: ELISA, coated CR6261, P. pastoris medium; settings: remark: other sources report otherwise
76D10 = assay: ELISA, coated CR6261, P. pastoris medium; settings: remark: other sources report otherwise
36E4 [1] = assay: ELISA, coated CR6261, P. pastoris medium; settings: remark: other sources report otherwise
96A7 = assay: ELISA, coated CR6261, P. pastoris medium; settings: remark: other sources report otherwise
71C4 = assay: ELISA, coated CR6261, P. pastoris medium; settings: remark: other sources report otherwise
48D11 [2] = assay: ELISA, coated CR6261, P. pastoris medium; settings: remark: other sources report otherwise
67C11 = assay: ELISA, coated CR6261, P. pastoris medium; settings: remark: other sources report otherwise
90A9 = assay: ELISA, coated CR6261, P. pastoris medium; settings: remark: other sources report otherwise
88C5 = assay: ELISA, coated CR6261, P. pastoris medium; settings: remark: other sources report otherwise
72D4 = assay: ELISA, coated CR6261, P. pastoris medium; settings: remark: other sources report otherwise
60A2 = assay: ELISA, coated CR6261, P. pastoris medium; settings: remark: other sources report otherwise
71D3 = assay: ELISA, coated CR6261, P. pastoris medium; settings: remark: other sources report otherwise
71E7 = assay: ELISA, coated CR6261, P. pastoris medium; settings: remark: other sources report otherwise
79D5 = assay: ELISA, coated CR6261, P. pastoris medium; settings: remark: other sources report otherwise
63D3 = assay: ELISA, coated CR6261, P. pastoris medium; settings: remark: other sources report otherwise
85A7 = assay: ELISA, coated CR6261, P. pastoris medium
51G10 = assay: ELISA, coated CR6261, P. pastoris medium; settings: remark: other sources report otherwise
79C2 = assay: ELISA, coated CR6261, P. pastoris medium; settings: remark: other sources report otherwise
58C8 = assay: ELISA, coated CR6261, P. pastoris medium; settings: remark: other sources report otherwise
74D7 = assay: ELISA, coated CR6261, P. pastoris medium; settings: remark: other sources report otherwise
9C6 = assay: ELISA, coated CR6261, P. pastoris medium; settings: remark: other sources report otherwise
66C8 = assay: ELISA, coated CR6261, P. pastoris medium; settings: remark: other sources report otherwise
9C10 = assay: ELISA, coated CR6261, P. pastoris medium; settings: remark: other sources report otherwise
80F10 = assay: ELISA, coated CR6261, P. pastoris medium; settings: remark: other sources report otherwise
7A7 = assay: ELISA, coated CR6261, P. pastoris medium; settings: remark: other sources report otherwise
67C10 = assay: ELISA, coated CR6261, P. pastoris medium; settings: remark: other sources report otherwise
96H8 [3] = assay: ELISA, coated CR6261, P. pastoris medium; settings: remark: other sources report otherwise
71A4 = assay: ELISA, coated CR6261, P. pastoris medium; settings: remark: other sources report otherwise
84B8 = assay: ELISA, coated CR6261, P. pastoris medium; settings: remark: other sources report otherwise
97G10 = assay: ELISA, coated CR6261, P. pastoris medium; settings: remark: other sources report otherwise
86H9 = assay: ELISA, coated CR6261, P. pastoris medium; settings: remark: other sources report otherwise
36E4 [4] = assay: ELISA signal over HTRF expression signal, P. pastoris; settings: remark: other sources report otherwise
11B4 = assay: as above; settings: remark: other sources report otherwise
48D11 [5] = assay: as above; settings: remark: other sources report otherwise
11F4 = assay: as above; settings: remark: other sources report otherwise
61A9 = assay: as above; settings: remark: other sources report otherwise
850 = assay: as above; settings: remark: other sources report otherwise
6A1 = assay: as above; settings: remark: other sources report otherwise
48B11 = assay: as above; settings: remark: other sources report otherwise
48B10 = assay: as above; settings: remark: other sources report otherwise
96G5 = assay: as above; settings: remark: other sources report otherwise
4C1 = assay: as above; settings: remark: other sources report otherwise
96H8 [6] = assay: as above; settings: remark: other sources report otherwise
75H8 = assay: as above; settings: remark: other sources report otherwise

B1: CR6261 (antibody, V domains shown)
VH: EVQLVESGAEVKKPGSSVKVSCKASGGPFRSYAISWVRQAPGQGPEWMGGIIPIFGTTKYAPKFQGRVTITADDFAGTVYMELSSLRSEDTAMYYCAKHMGYQVRETMDVWGKGTTVTVSS
VL: QSVLTQPPSVSAAPGQKVTISCSGSSSNIGNDYVSWYQQLPGTAPKLLIYDNNKRPSGIPDRFSGSKSGTSATLGITGLQTGDEANYYCATWDRRPTAYVVFGGGTKLTVLG
**Q.** B1 was tested. Which CR6261 binding signal (86G2) did it give?
**A.** Its CR6261 binding signal is 69700.

**Q.** And the CR6261 binding signal (78F11)?
**A.** The CR6261 binding signal was 84100.

**Q.** And the CR6261 binding signal (76D10)?
**A.** Its CR6261 binding signal is 114000.

**Q.** And the CR6261 binding signal (36E4 [1])?
**A.** Its CR6261 binding signal is 196000.

**Q.** What about the CR6261 binding signal (96A7) of the same binder?
**A.** Its CR6261 binding signal is 83300.

**Q.** What about the CR6261 binding signal (71C4) of the same binder?
**A.** Its CR6261 binding signal is 1.35e+06.

**Q.** And the CR6261 binding signal (48D11 [2])?
**A.** Its CR6261 binding signal is 121000.

**Q.** What about the CR6261 binding signal (67C11) of the same binder?
**A.** Its CR6261 binding signal is 209000.

**Q.** What about the CR6261 binding signal (90A9) of the same binder?
**A.** Its CR6261 binding signal is 414000.

**Q.** What about the CR6261 binding signal (88C5) of the same binder?
**A.** Its CR6261 binding signal is 471000.

**Q.** And the CR6261 binding signal (72D4)?
**A.** Its CR6261 binding signal is 330000.

**Q.** What about the CR6261 binding signal (60A2) of the same binder?
**A.** Its CR6261 binding signal is 92700.

**Q.** What about the CR6261 binding signal (71D3) of the same binder?
**A.** The CR6261 binding signal was 1.57e+06.

**Q.** And the CR6261 binding signal (71E7)?
**A.** Its CR6261 binding signal is 203000.

**Q.** And the CR6261 binding signal (79D5)?
**A.** The CR6261 binding signal was 703000.

**Q.** What about the CR6261 binding signal (63D3) of the same binder?
**A.** Its CR6261 binding signal is 146000.

**Q.** And the CR6261 binding signal (85A7)?
**A.** Its CR6261 binding signal is 236000.

**Q.** And the CR6261 binding signal (51G10)?
**A.** Its CR6261 binding signal is 215000.

**Q.** And the CR6261 binding signal (79C2)?
**A.** Its CR6261 binding signal is 364000.

**Q.** And the CR6261 binding signal (58C8)?
**A.** Its CR6261 binding signal is 277000.

**Q.** And the CR6261 binding signal (74D7)?
**A.** Its CR6261 binding signal is 359000.

**Q.** And the CR6261 binding signal (9C6)?
**A.** The CR6261 binding signal was 271000.

**Q.** And the CR6261 binding signal (66C8)?
**A.** The CR6261 binding signal was 185000.

**Q.** What about the CR6261 binding signal (9C10) of the same binder?
**A.** The CR6261 binding signal was 114000.

**Q.** And the CR6261 binding signal (80F10)?
**A.** Its CR6261 binding signal is 90900.

**Q.** And the CR6261 binding signal (7A7)?
**A.** Its CR6261 binding signal is 988000.

**Q.** What about the CR6261 binding signal (67C10) of the same binder?
**A.** Its CR6261 binding signal is 306000.

**Q.** And the CR6261 binding signal (96H8 [3])?
**A.** Its CR6261 binding signal is 206000.

**Q.** What about the CR6261 binding signal (71A4) of the same binder?
**A.** The CR6261 binding signal was 1.05e+06.

**Q.** And the CR6261 binding signal (84B8)?
**A.** The CR6261 binding signal was 582000.

**Q.** And the CR6261 binding signal (97G10)?
**A.** The CR6261 binding signal was 253000.

**Q.** What about the CR6261 binding signal (86H9) of the same binder?
**A.** The CR6261 binding signal was 457000.

**Q.** What about the fold increase of ratio over parental SEQ ID NO: 6 (36E4 [4]) of the same binder?
**A.** The fold increase of ratio over parental SEQ ID NO: 6 was 2.07.

**Q.** What about the ratio (binding signal/HTRF signal) (36E4 [4]) of the same binder?
**A.** The ratio (binding signal/HTRF signal) was 12.3.

**Q.** And the fold increase of ratio over parental SEQ ID NO: 6 (11B4)?
**A.** The fold increase of ratio over parental SEQ ID NO: 6 was 3.23.

**Q.** And the ratio (binding signal/HTRF signal) (11B4)?
**A.** Its ratio (binding signal/HTRF signal) is 19.2.

**Q.** And the fold increase of ratio over parental SEQ ID NO: 6 (48D11 [5])?
**A.** The fold increase of ratio over parental SEQ ID NO: 6 was 2.98.

**Q.** And the ratio (binding signal/HTRF signal) (48D11 [5])?
**A.** Its ratio (binding signal/HTRF signal) is 17.7.

**Q.** What about the fold increase of ratio over parental SEQ ID NO: 6 (11F4) of the same binder?
**A.** Its fold increase of ratio over parental SEQ ID NO: 6 is 2.54.

**Q.** And the ratio (binding signal/HTRF signal) (11F4)?
**A.** The ratio (binding signal/HTRF signal) was 15.1.

**Q.** What about the fold increase of ratio over parental SEQ ID NO: 6 (61A9) of the same binder?
**A.** Its fold increase of ratio over parental SEQ ID NO: 6 is 5.94.

**Q.** What about the ratio (binding signal/HTRF signal) (61A9) of the same binder?
**A.** Its ratio (binding signal/HTRF signal) is 35.3.

**Q.** And the fold increase of ratio over parental SEQ ID NO: 6 850?
**A.** Its fold increase of ratio over parental SEQ ID NO: 6 is 4.07.

**Q.** And the ratio (binding signal/HTRF signal) 850?
**A.** The ratio (binding signal/HTRF signal) was 24.2.

**Q.** What about the fold increase of ratio over parental SEQ ID NO: 6 (6A1) of the same binder?
**A.** The fold increase of ratio over parental SEQ ID NO: 6 was 4.63.

**Q.** What about the ratio (binding signal/HTRF signal) (6A1) of the same binder?
**A.** The ratio (binding signal/HTRF signal) was 27.5.

**Q.** And the fold increase of ratio over parental SEQ ID NO: 6 (48B11)?
**A.** The fold increase of ratio over parental SEQ ID NO: 6 was 3.41.

**Q.** And the ratio (binding signal/HTRF signal) (48B11)?
**A.** Its ratio (binding signal/HTRF signal) is 20.3.

**Q.** What about the fold increase of ratio over parental SEQ ID NO: 6 (48B10) of the same binder?
**A.** Its fold increase of ratio over parental SEQ ID NO: 6 is 3.16.

**Q.** What about the ratio (binding signal/HTRF signal) (48B10) of the same binder?
**A.** The ratio (binding signal/HTRF signal) was 18.8.

**Q.** And the fold increase of ratio over parental SEQ ID NO: 6 (96G5)?
**A.** Its fold increase of ratio over parental SEQ ID NO: 6 is 2.4.

**Q.** And the ratio (binding signal/HTRF signal) (96G5)?
**A.** The ratio (binding signal/HTRF signal) was 14.3.

**Q.** And the fold increase of ratio over parental SEQ ID NO: 6 (4C1)?
**A.** The fold increase of ratio over parental SEQ ID NO: 6 was 3.92.

**Q.** And the ratio (binding signal/HTRF signal) (4C1)?
**A.** Its ratio (binding signal/HTRF signal) is 23.3.

**Q.** And the fold increase of ratio over parental SEQ ID NO: 6 (96H8 [6])?
**A.** Its fold increase of ratio over parental SEQ ID NO: 6 is 4.8.

**Q.** And the ratio (binding signal/HTRF signal) (96H8 [6])?
**A.** The ratio (binding signal/HTRF signal) was 28.5.

**Q.** What about the fold increase of ratio over parental SEQ ID NO: 6 (75H8) of the same binder?
**A.** The fold increase of ratio over parental SEQ ID NO: 6 was 1.73.

**Q.** And the ratio (binding signal/HTRF signal) (75H8)?
**A.** Its ratio (binding signal/HTRF signal) is 10.2.

Source: US20170209564A1
